# Results from patent US20200283478A1 (Genentech, published 2020).
# Bridge positions count the residues as written; N and C are the ends. Square brackets hold non-standard residues; d marks the D form. Primed or numbered codes have the meaning given here. Ends that are not written are not given here. Hyp′ = 3-hydroxyproline; Ahp = NCCCCCCC(=O)O; Ahx = NCCCCCC(=O)O
# B1: Compound 89 (WCLWNLKRIGSQCWF-NH2) (peptide)
# peptide: WCLWNLKRIGSQCWF-NH2
# modifications: disulfide 2-13; N-terminus assumed
# SMILES: CC[C@H](C)[C@@H]1NC(=O)[C@H](CCCNC(=N)N)NC(=O)[C@H](CCCCN)NC(=O)[C@H](CC(C)C)NC(=O)[C@H](CC(N)=O)NC(=O)[C@H](Cc2c[nH]c3ccccc23)NC(=O)[C@H](CC(C)C)NC(=O)[C@@H](NC(=O)[C@@H](N)Cc2c[nH]c3ccccc23)CSSC[C@@H](C(=O)N[C@@H](Cc2c[nH]c3ccccc23)C(=O)N[C@@H](Cc2ccccc2)C(N)=O)NC(=O)[C@H](CCC(N)=O)NC(=O)[C@H](CO)NC(=O)CNC1=O
# B2: Compound 87 (Ac-GCLWNLKRIGSQCWF-NH2) (peptide)
# peptide: Ac-GCLWNLKRIGSQCWF-NH2
# modifications: disulfide 2-13
# SMILES: CC[C@H](C)[C@@H]1NC(=O)[C@H](CCCNC(=N)N)NC(=O)[C@H](CCCCN)NC(=O)[C@H](CC(C)C)NC(=O)[C@H](CC(N)=O)NC(=O)[C@H](Cc2c[nH]c3ccccc23)NC(=O)[C@H](CC(C)C)NC(=O)[C@@H](NC(=O)CNC(C)=O)CSSC[C@@H](C(=O)N[C@@H](Cc2c[nH]c3ccccc23)C(=O)N[C@@H](Cc2ccccc2)C(N)=O)NC(=O)[C@H](CCC(N)=O)NC(=O)[C@H](CO)NC(=O)CNC1=O
# B3: Compound 116 (Ac-CRLPWNLQRI-(Ahx)-C-NH2) (peptide)
# peptide: Ac-CRLPWNLQRI[Ahx]C-NH2
# modifications: disulfide 1-12
# SMILES: CC[C@H](C)[C@@H]1NC(=O)[C@H](CCCNC(=N)N)NC(=O)[C@H](CCC(N)=O)NC(=O)[C@H](CC(C)C)NC(=O)[C@H](CC(N)=O)NC(=O)[C@H](Cc2c[nH]c3ccccc23)NC(=O)[C@@H]2CCCN2C(=O)[C@H](CC(C)C)NC(=O)[C@H](CCCNC(=N)N)NC(=O)[C@@H](NC(C)=O)CSSC[C@@H](C(N)=O)NC(=O)CCCCCNC1=O
# B4: Compound 63 (Ac-MCLWNLKRIGSQCEY-NH2) (peptide)
# peptide: Ac-MCLWNLKRIGSQCEY-NH2
# modifications: disulfide 2-13
# SMILES: CC[C@H](C)[C@@H]1NC(=O)[C@H](CCCNC(=N)N)NC(=O)[C@H](CCCCN)NC(=O)[C@H](CC(C)C)NC(=O)[C@H](CC(N)=O)NC(=O)[C@H](Cc2c[nH]c3ccccc23)NC(=O)[C@H](CC(C)C)NC(=O)[C@@H](NC(=O)[C@H](CCSC)NC(C)=O)CSSC[C@@H](C(=O)N[C@@H](CCC(=O)O)C(=O)N[C@@H](Cc2ccc(O)cc2)C(N)=O)NC(=O)[C@H](CCC(N)=O)NC(=O)[C@H](CO)NC(=O)CNC1=O
# B5: Compound 95 (Ac-FCLWNLKRIGSQCEY-NH2) (peptide)
# peptide: Ac-FCLWNLKRIGSQCEY-NH2
# modifications: disulfide 2-13
# SMILES: CC[C@H](C)[C@@H]1NC(=O)[C@H](CCCNC(=N)N)NC(=O)[C@H](CCCCN)NC(=O)[C@H](CC(C)C)NC(=O)[C@H](CC(N)=O)NC(=O)[C@H](Cc2c[nH]c3ccccc23)NC(=O)[C@H](CC(C)C)NC(=O)[C@@H](NC(=O)[C@H](Cc2ccccc2)NC(C)=O)CSSC[C@@H](C(=O)N[C@@H](CCC(=O)O)C(=O)N[C@@H](Cc2ccc(O)cc2)C(N)=O)NC(=O)[C@H](CCC(N)=O)NC(=O)[C@H](CO)NC(=O)CNC1=O
# B6: Compound 65 (Ac-WCLWNLKRIGSQCEY-NH2) (peptide)
# peptide: Ac-WCLWNLKRIGSQCEY-NH2
# modifications: disulfide 2-13
# SMILES: CC[C@H](C)[C@@H]1NC(=O)[C@H](CCCNC(=N)N)NC(=O)[C@H](CCCCN)NC(=O)[C@H](CC(C)C)NC(=O)[C@H](CC(N)=O)NC(=O)[C@H](Cc2c[nH]c3ccccc23)NC(=O)[C@H](CC(C)C)NC(=O)[C@@H](NC(=O)[C@H](Cc2c[nH]c3ccccc23)NC(C)=O)CSSC[C@@H](C(=O)N[C@@H](CCC(=O)O)C(=O)N[C@@H](Cc2ccc(O)cc2)C(N)=O)NC(=O)[C@H](CCC(N)=O)NC(=O)[C@H](CO)NC(=O)CNC1=O
# B7: Compound 121 (Ac-CRLPWNLQRI-(Ahp)-C-NH2) (peptide)
# peptide: Ac-CRLPWNLQRI[Ahp]C-NH2
# modifications: disulfide 1-12
# SMILES: CC[C@H](C)[C@@H]1NC(=O)[C@H](CCCNC(=N)N)NC(=O)[C@H](CCC(N)=O)NC(=O)[C@H](CC(C)C)NC(=O)[C@H](CC(N)=O)NC(=O)[C@H](Cc2c[nH]c3ccccc23)NC(=O)[C@@H]2CCCN2C(=O)[C@H](CC(C)C)NC(=O)[C@H](CCCNC(=N)N)NC(=O)[C@@H](NC(C)=O)CSSC[C@@H](C(N)=O)NC(=O)CCCCCCNC1=O
# B8: Compound 88 (Ac-FCLWNLARIGSQCWF-NH2) (peptide)
# peptide: Ac-FCLWNLARIGSQCWF-NH2
# modifications: disulfide 2-13
# SMILES: CC[C@H](C)[C@@H]1NC(=O)[C@H](CCCNC(=N)N)NC(=O)[C@H](C)NC(=O)[C@H](CC(C)C)NC(=O)[C@H](CC(N)=O)NC(=O)[C@H](Cc2c[nH]c3ccccc23)NC(=O)[C@H](CC(C)C)NC(=O)[C@@H](NC(=O)[C@H](Cc2ccccc2)NC(C)=O)CSSC[C@@H](C(=O)N[C@@H](Cc2c[nH]c3ccccc23)C(=O)N[C@@H](Cc2ccccc2)C(N)=O)NC(=O)[C@H](CCC(N)=O)NC(=O)[C@H](CO)NC(=O)CNC1=O
# B9: Compound 40 (Ac-GSG-CWNLKRIGSQGCW-NH2) (peptide)
# peptide: Ac-GSGCWNLKRIGSQGCW-NH2
# modifications: disulfide 4-15
# SMILES: CC[C@H](C)[C@@H]1NC(=O)[C@H](CCCNC(=N)N)NC(=O)[C@H](CCCCN)NC(=O)[C@H](CC(C)C)NC(=O)[C@H](CC(N)=O)NC(=O)[C@H](Cc2c[nH]c3ccccc23)NC(=O)[C@@H](NC(=O)CNC(=O)[C@H](CO)NC(=O)CNC(C)=O)CSSC[C@@H](C(=O)N[C@@H](Cc2c[nH]c3ccccc23)C(N)=O)NC(=O)CNC(=O)[C@H](CCC(N)=O)NC(=O)[C@H](CO)NC(=O)CNC1=O
# B10: Compound 66 (WCLWNLKRIGSQCWF) (peptide)
# peptide: H-WCLWNLKRIGSQCWF-OH
# modifications: disulfide 2-13
# SMILES: CC[C@H](C)[C@@H]1NC(=O)[C@H](CCCNC(=N)N)NC(=O)[C@H](CCCCN)NC(=O)[C@H](CC(C)C)NC(=O)[C@H](CC(N)=O)NC(=O)[C@H](Cc2c[nH]c3ccccc23)NC(=O)[C@H](CC(C)C)NC(=O)[C@@H](NC(=O)[C@@H](N)Cc2c[nH]c3ccccc23)CSSC[C@@H](C(=O)N[C@@H](Cc2c[nH]c3ccccc23)C(=O)N[C@@H](Cc2ccccc2)C(=O)O)NC(=O)[C@H](CCC(N)=O)NC(=O)[C@H](CO)NC(=O)CNC1=O
# Molecular target: T1, His-tagged, full-length PCSK9 (human, UniProt Q8NBP7 31-692)
# T1 construct: secreted PCSK9 is autocatalytically cleaved into prodomain and catalytic domain + CRD (from S153), which stay associated; also called His-PCSK9; proprotein convertase subtilisin/kexin type 9; not shown: His tag
# T1 sequence (Q8NBP7 31-692 limits assumed): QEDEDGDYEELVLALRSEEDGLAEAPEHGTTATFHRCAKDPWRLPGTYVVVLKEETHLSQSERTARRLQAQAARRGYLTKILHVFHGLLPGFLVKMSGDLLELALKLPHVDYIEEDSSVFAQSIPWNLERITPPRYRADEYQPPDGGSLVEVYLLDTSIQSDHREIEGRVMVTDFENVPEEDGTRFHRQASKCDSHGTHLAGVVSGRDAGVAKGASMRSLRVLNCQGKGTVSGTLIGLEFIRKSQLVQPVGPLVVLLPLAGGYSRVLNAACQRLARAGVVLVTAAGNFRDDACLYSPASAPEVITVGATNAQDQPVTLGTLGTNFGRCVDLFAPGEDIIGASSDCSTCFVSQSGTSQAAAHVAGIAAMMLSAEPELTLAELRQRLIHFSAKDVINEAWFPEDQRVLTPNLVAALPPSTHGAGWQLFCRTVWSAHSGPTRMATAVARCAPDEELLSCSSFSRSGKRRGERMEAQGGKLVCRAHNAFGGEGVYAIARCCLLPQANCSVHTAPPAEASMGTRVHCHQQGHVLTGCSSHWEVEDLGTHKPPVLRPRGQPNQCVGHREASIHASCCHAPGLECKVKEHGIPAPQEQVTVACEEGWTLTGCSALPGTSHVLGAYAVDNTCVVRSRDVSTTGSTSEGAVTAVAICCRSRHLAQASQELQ
# Assay: TR-FRET competition (PCSK9/EGF(A) assay); competitor EGF(A)-Fc;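 further: proximity signal from anti-His APC on PCSK9 paired with anti-Fc europium on the Fc ligand, read as normalized TR-FRET ratio across compound dilutions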
row,Binder,IC50 [µM]
1,B1,6.9
2,B2,> 50
3,B3,> 50
4,B4,14.6
5,B5,> 50
6,B6,> 50
7,Ac-WCLWNLKRIGSQCWF (disulfide 2-13) [Compound 90 (Ac-WCLWNLKRIGSQCWF)],29.2
8,Ac-SGCRL[Hyp′]WNLQRIGLPC-NH2 (disulfide 3-16) [Compound 37 (Ac-SG-CRL(Hyp)WNLQRIGLPC-NH2)],> 50
9,B7,> 50
10,B8,17.9
11,B9,5.96
12,B10,31.3

# Molecular target: T2, His-tagged PCSK9Δhelix (human, UniProt Q8NBP7 31-152; Q8NBP7 168-692)
# T2 construct: Human PCSK9 M1-Q692 with an engineered TEV site, cut by TEV protease; new N-terminus of the catalytic domain is S-A168; also called His-PCSK9Δhelix; not shown: His tag
# T2 sequence (Q8NBP7 31-152, stated change not applied, chain 1 of 2): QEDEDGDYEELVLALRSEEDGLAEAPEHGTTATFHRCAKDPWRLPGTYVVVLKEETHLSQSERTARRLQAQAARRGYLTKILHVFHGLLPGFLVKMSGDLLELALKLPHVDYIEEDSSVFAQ
# T2 sequence (Q8NBP7 other isoform, or with tags, fused parts or gaps mutant, chain 2 of 2): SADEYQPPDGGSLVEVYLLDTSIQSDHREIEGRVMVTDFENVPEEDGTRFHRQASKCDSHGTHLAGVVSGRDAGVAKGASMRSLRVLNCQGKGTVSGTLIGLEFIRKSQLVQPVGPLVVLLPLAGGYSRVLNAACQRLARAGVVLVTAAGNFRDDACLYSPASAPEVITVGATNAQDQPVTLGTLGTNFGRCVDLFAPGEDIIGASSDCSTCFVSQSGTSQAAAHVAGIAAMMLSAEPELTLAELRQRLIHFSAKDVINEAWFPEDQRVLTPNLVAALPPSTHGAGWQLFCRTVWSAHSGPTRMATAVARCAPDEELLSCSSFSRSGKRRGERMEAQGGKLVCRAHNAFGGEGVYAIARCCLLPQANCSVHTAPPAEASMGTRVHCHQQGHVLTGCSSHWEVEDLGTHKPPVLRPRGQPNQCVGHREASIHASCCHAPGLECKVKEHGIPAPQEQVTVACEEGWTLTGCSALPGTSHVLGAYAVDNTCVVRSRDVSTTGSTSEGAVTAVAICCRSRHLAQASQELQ
# Assay: TR-FRET competition (PCSK9Δhelix/Ab20 assay); competitor Ab20
row,Binder,IC50 [µM]
1,B1,2.98
2,B2,9.53
3,B3,31.6
4,B4,6
5,B5,12.7
6,B6,7.1
7,Ac-WCLWNLKRIGSQCWF (disulfide 2-13) [Compound 90 (Ac-WCLWNLKRIGSQCWF)],7.38
8,Ac-SGCRL[Hyp′]WNLQRIGLPC-NH2 (disulfide 3-16) [Compound 37 (Ac-SG-CRL(Hyp)WNLQRIGLPC-NH2)],11.1
9,B7,40.3
10,B8,7.46
11,B9,2.41
12,B10,12
